Test results taken from the nanobody polyreactivity screen of Harvey et al. (2022).

Test: yeast display, Sf9 membrane polyspecificity reagent, FACS + sequencing; frameworks hold sequencing errors
How it was run: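 After 36–48 hours of galactose induction, yeast (Saccharomyces cerevisiae BJ5465) displaying a synthetic nanobody library were stained at 4 °C for 1 hour with 10% biotinylated, detergent-solubilized Sf9 membrane reagent. Streptavidin microbeads enriched the stained cells before FACS sorting into low and high (top ~1%) gates on anti-HA and streptavidin fluorescence. Each clone's polyreactivity label reflects its gate of origin.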

Sequence | polyreactivity (PSR sort gate)
QVQLVESGGGLVQAGGSLRLSCAASRSIFPYNVMGWYRQAPGTEMELVAAISTRGGRTYYADSVKGRFTISRDYAKNTVYLQMNSLKPEDTAVYYCATAGGPYSDSGYYWGHGTQVTVSS | high polyreactivity
QVQLVESGGGLVQAGGSLRLSCAASRSIFYRYAMGWYRQEPGKERELVAAISRSGGTTYYADSVKGRFTISRDNAKNTVYLQMNSQKPEDTAVYYCAARVFHPYSTDPFYYWGQGTQVTVSS | high polyreactivity
QVQLVESGGGLVQAGGSLRLSCAASRSTFPRYAMGWSRQAPGKERELVAAISSSGRTYYADSVKGRFTISRDNAKNTVYLQMNSLKPEDTAVYYCNAPVARGEASYYWGQGTEVTVSS | high polyreactivity
QVQLVESGGGLVQAGGSLRLSCAASRSTFSGNAMGWYIQAPGKERELVATITSDGTTYYADSVKGRFTISRDNAKNNVYLLMNSLKPEDTAVYYCAARYTAYRDDYWGQGTHVTVSS | high polyreactivity
QVQLVESGGGLVQAGGSLRLSCAASSIFRTYAMGWYRQAPGKERELVAAITWSGASTNYADSVKGRFTISRDNAKNTVYLQMNSLKPEDTAVYYCNADWRYYPSFKYYYWGQGTQVTVSS | high polyreactivity
QVQLVESGGGLVQAGGSLRLSCAASVFIFDTYTMGWYRQAPGKERELVAAITGSGVNTYYADSVKGRFTISRDNAKNTVYLQMNSLKPEDTAVYYCAARRKNRRDYDYYYWGQGTQVTVSS | high polyreactivity
QVQLVESGGGLVQAGGSLRLSCAASVFIFGLYVMGWYRQAPGKERELVAAITFNGGSTYADSVKGRFTISRDNAKNTVYLQMNSLKPEDTAVYYCNAGRAVYRYWYKYVYWGQGTQVTVSS | high polyreactivity
QVQLVESGGGLVQAGGSLRLSCAASVFLPYTMGWYRQAPGKERELVAAITRGGSTYYADSVKGRFTISRDNAKNTVYLQMNSLKPEDTAVYYCAKRSTFAWRGYDYWGQGTQVTVSS | high polyreactivity
QVQLVESGGGLVQAGGSLRLSCAASVFTFISYAMGRYRQAPGKEREFVAAITRGGGSTYYADSVKGRFTISRDNAKNTVYLQMNSLKPEDTAVYYCAADPQSTIRDYWGQGTQVTVSS | high polyreactivity
QVQLVESGGGLVQAGGSLRLSCAASVFTFKINGMGWYRQAPGKEREFVATIRTSTGRTYYADSVKGRFTISRDNAKNTVYLQMNSLKPEDTAVYYCDTRVRQGNTHPNGKSDDYWGQGTQVTVSS | high polyreactivity
QVQLVESGGGLVQAGGSLRLSCAASVFTFVRYSMGWYRQAPGKERELVAAISSGGRTYYADSVKGRFTISRDNAKYTVYLQMNSLKPEDTAVYYCAADTKFGYGYWGQGTQVNVSS | high polyreactivity
QVQLVESGGGLVQAGGSLRLSCAASVIIISYYAIGWYRQAPGKERELVAAITRGGGRTYYADSVKGRFTISRDNAKNTVYLQMNSLKPEDTAVYYCKALSRYVENDYWGQGTQVTVSS | high polyreactivity
QVQLVESGGGLVQAGGSLRLSCAASVRIFAKYAMGWYRQAPGKERELVAAITSGGRTYYADSVKGRFTISRDNAKNTVYLPMNSLKPEDTAVYYCNAVPKSRDWQSYGSWGQGTQVTVSS | high polyreactivity
QVQLVESGGGLVQAGGSLRLSCAASVRIFGSNVMGWYRQAPGKERELVASISSGGTTYYADSVKGRFTISRDNAKYTVYLQMNSLKPEDTAVYYCAKQWTRIYQYRWYPGTRTGYDYWGQGTQVTVSS | high polyreactivity
QVQLVESGGGLVQAGGSLRLSCAASVRIFVYNTMGWYRQAPGKERELVAAINYSGGSTYYADSVKGRFTISRDNAKNTVYLQMNSLKPEDTAVYYCAVKLRSRAGTSYGYWGQGTQVTVSS | high polyreactivity
QVQLVESGGGLVQAGGSLRLSCAASVRSFRWYTMGWYRQAPGKERELVATISWRGGSTSYADSVKGRFTISRDNAKNTVYLQMNSLKPEDNAVYYCNAVYLWWAYDYWGQGTQVTVSS | high polyreactivity
QVQLVESGGGLVQAGGSLRLSCAASVRTFKWYAMGWYRQAPGKERELVAGISRGAGRTYYADSVKWRFTMSRDNAKNTVYLQMNSLKPEDTAVYYCAAVPSYHSTSPFYYWGQGTQVTVSS | high polyreactivity
QVQLVESGGGLVQAGGSLRLSCAASVRTFKYYAMGWYRQAPGKERELVAAISWSGSSTYYADSVKGRFTISRDNAKNTVDLPMNSLKPEDPAVYYCAAATYRQFTGTYDYWGQGTQVTVSS | high polyreactivity
QVQLVESGGGLVQAGGSLRLSCAASVRTFRIYAMGWYRQAPGKERELVAAISWDDGSTYYADSVKGRFTISRDNAKNTVYLQMNSLKPEDTAVYYCAAEYYFVNRGAWYDYWGQGTQVTVSS | high polyreactivity
QVQLVESGGGLVQAGGSLRLSCAASVRTFVVYAMGWYRQAPGKEREMVAVISFTGDSTFYADSVKGRFTISRDNAKNTVYLQMNSLKPEDTAVYYCNAGPYTYLHWNQAISRYYYWGQGTQVTVSS | low polyreactivity
QVQLVESGGGLVQAGGSLRLSCAASVRTSGRYAMGWYRQAPGKERELVAAISWSGGSTYYADSVQGRFTSSRDNAKNTVYLQMNSLKPEDTAVYYCNAQHALGYYYWGQGTQVTVSS | low polyreactivity
QVQLVESGGGLVQAGGSLRLSCAASVSIFATNAKGWYRQAPGKERELVASISSGGGSTYYADSVKGRFTISRDNEKNTVYLQMNSLKPEDTAVYYFARRIGHGSRPYWLETWRYPYDYWGQGTQLTVSS | low polyreactivity

Sequence | polyreactivity (PSR sort gate)
QVQLVESGGGLVQAGGSLRLSCAASVSIFAYYAMGLYRQAPGKERELVAAISRGGDTNYADSVKGRFTISRDNAKNTVYLQMNSLKPEDTAVSYCAATSYVRGYWYGYWGQGSQVTVSS | high polyreactivity
QVQLVESGGGLVQAGGSLRLSCAASVSIFGPYAKGWYRQAPGKERDLDAAISRGSRTNYADSVKGLFTISRDNEKNTVYLQMNSLKPEDTAVYYCAARYVWRSTHHRGSTYDYWRQGTQVTVSS | high polyreactivity
QVQLVESGGGLVQAGGSLRLSCAASVSIFSSYAMGWYRQAPGKERELVAAISSSGDSTDADSVKGRFTISRDNAKNTVYLQMNSLKPEDTAVYYCAVGGAGSDDYWGHGTQVTVSS | low polyreactivity
QVQLVESGGGLVQAGGSLRLSCAASVSIFYPYAMGWYRQAPGKERELVAAIRWSGGRTYYADSVKGRFTISRDNAKNTVYLQMNSLKPEDTAVYYCAADGQVSGYDYWGQGTQVTVSS | high polyreactivity
QVQLVESGGGLVQAGGSLRLSCAASVSIIACYTMGWYRQATGTERELVAGIRRGGSTNYADSVKGRVTISRDNAKNTVYLQMNSLKPEDTAVYYCNAQRTRSYVLRTFDYWGQGTQVTVSS | high polyreactivity
QVQLVESGGGLVQAGGSLRLSCAASVSIILDNAMGWYRQAPGKERELVASIDWSGGSTDYADSVKGRFTISRDNAKNTVYLQMNSLKPEDTAVYYCNAERYPYRLRARKLDYWGQGTQVTVSS | low polyreactivity
QVQLVESGGGLVQAGGSLRLSCAASVSTFALYVMGWYRQAPGKERELVAAITDSSSTYYADSVKGRFTISRDNAKNTVYLQMNSLKPEDTAVYYCAARGRLIYAITYRNSPVYYWGQGTQVTVSS | low polyreactivity
QVQLVESGGGLVQAGGSLRLSCAASVSTFDYYTMGRYRQAPGKERELVAAISSAGSTNYADSVKGRFTISRDNAKNTVYLQMNSLKPEDTAVYYCAAQVHPIRYDYWGQGTQVTVSS | low polyreactivity
QVQLVESGGGLVQAGGSLRLSCAASVSTFFRNAMGWYRQAPGKERELVAAISKSGTSTYYADSVKGRFTISRDNAKNTVYLQMNSLKPEDTAVYYCAKYGFSYPQSYAYYYWGQGTQVTVSS | high polyreactivity
QVQLVESGGGLVQAGGSLRLSCAASVSTFGGYAMGWYRQAPGKERELDAAITYSGGSTYYADSVKGRFTISRDNAKNTVYLQMNSLKPEDTAVYYCNADDDDALPWWWPYVLDVDYWGQGTQVTVSS | low polyreactivity
QVQLVESGGGLVQAGGSLRLSCAASVSTFRNYAMGWYRQAPGKERELVAAISGSGVRTYYADSVKGRFTISRDNAKNTVYLQMNSLKPEDTAVYYCAARGQGGPYNYWGQGTQVTVSS | high polyreactivity
QVQLVESGGGLVQAGGSLRLSCAASVSTFVLYAMGWYRQAPGKERELVAVISWSGGSTYYADSVKGRFTISRDNAKNTVYLQMNSLKPEDTAVYYCAADSTWEGGYKYEYWGQGTQVTVSS | low polyreactivity
QVQLVESGGGLVQAGGSLRLSCAASVSTFYRYTMVWYRQAPGKERELVAAITYRGGTTYYADSVKGRFTISRDNAKNTVYLQMNSLKPEDTAVYYCAAYSSLGYIMNYWGQGTQVTVSS | high polyreactivity
QVQLVESGGGLVQAGGSLRLSCAASVSTIGYYAMGWYRQAPGKEWELVAAITWSGDSTYADSVKGRFTISRDNAKNTVYLQMNRLKPEDTAVYYCARRGFLGHWPRPSYDYWGQGTQVTVSS | low polyreactivity
QVQLVESGGGLVQAGGSLRLSCAASVYIFVPYTLGWYRQAPGKERELVAAITRSGGSTYYADSVKGRFTISRDNAKNTVSLQMNSLKPEDTAVYYCATVGGPRWVRAQYDYWGQGTQVTVSS | high polyreactivity
QVQLVESGGGLVQAGGSLRLSCAASVYTFSKNTMGWYRQAPGKEREFVAAINWSGGSTYYADSVKGRFTISRDNAKNTVYLQMNSLKPEDTAVYYFAARRGGRRGYDYWGQGTQVTVSS | high polyreactivity
QVQLVESGGGLVQAGGSLRLSCAATGFIFPYYAMGLYRQAPGKEREMVAAITFSATRTYYADSVKGRFTISRDNAKNTVYLQMNSLKPEDTAVYYCNARGGVYGSYFEFNYWGQGTQVTVSS | low polyreactivity
QVQLVESGGGLVQAGGSLRLSCAATGFRFVHTAIGWYRKAPGKERELVAAIRSRGGSTYYADSVKGRFTISRDNAKNTVYLQMKSLKPEDTAVYYCAADGAVDSSSRKFGYWGQGTQVNVSS | low polyreactivity
QVQLVESGGGLVQAGGSLRLSCAATGFTFGWNDMGWYRQARGKEMELVAAISGGGGSTYYADSVKGRFTISRDNAKNTVYLQMNSLKPEDTAVYYCATDSGTLIVKYDYWGQGTQVTVSS | low polyreactivity
QVQLVESGGGLVQAGGSLRLSCAATGFTFRYNAMGWYRQAPGKERELGAAISIGGTTNYADSVKGRFTISRDNAKNTVYLQMNSLKPEDTAVYYCNALGTYFRRYDYWGQGTQVTVSS | low polyreactivity
QVQLVESGGGLVQAGGSLRLSCAATGFTFSLYGMGWYRQAPGKERELVAAIRSGGSTNYADSVKGRFTISRDNAKNTVYLQMNSLKPVDTAVYYCATDIHSVHNNRDKHDYDYWGQGTQVTVSS | low polyreactivity
